Test results reported in the supplement of paper PMC5998384.

Assays:
HeLa Kyoto [1] = experiment: solubility change mitosis vs G1/S (difference of NP-40 vs SDS log2 ratios) (log2 ratio difference); higher = more soluble in mitosis
HeLa Kyoto [2] = experiment: melting temperature (median over replicates), in situ; higher = more thermally stable
HeLa Kyoto [3] = experiment: solubility in G1/S (NP-40 vs SDS abundance) (log2 ratio); higher = more soluble; details: cell cycle stage: G1/S
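Wherever melting temperature (median over replicates), in situ is given: HeLa Kyoto cells synchronized by double thymidine or nocodazole block, proteins quantified by TMT10plex mass spectrometry, three independent biological replicates.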
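Wherever solubility change mitosis vs G1/S (difference of NP-40 vs SDS log2 ratios) is given: synchronized HeLa Kyoto cells (double thymidine block for G1/S, nocodazole release for mitosis), protein amounts in NP-40 versus SDS lysates quantified by mass spectrometry, three biological replicates.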
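Wherever solubility in G1/S (NP-40 vs SDS abundance) is given: HeLa Kyoto cells arrested at G1/S by double thymidine block, proteins quantified by TMT10plex mass spectrometry in mild NP-40 versus SDS extracts, three biological replicates.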

## MWVCSTLWRVRTPARQWRGLLPASGCHGPAASSYSASAEPARVRALVYGHHGDPAKVVELKNLELAAVRGSDVRVKMLAAPINPSDINMIQGNYGFLPELPAVGGNEGVAQVVAVGSNVTGLKPGDWVIPANAGLGTWRTEAVFSEEALIQVPSDIPLQSAATLGVNPCTAYRMLMDFEQLQPGDSVIQNASNSGVGQAVIQIAAALGLRTINVVRDRPDIQKLSDRLKSLGAEHVITEEELRRPEMKNFFKDMPQPRLALNCVGGKSSTELLRQLARGGTMVTYGGMAKQPVVASVSLLIFKDLKLRGFWLSQWKKDHSPDQFKELILTLCDLIRRGQLTAPACSQVPLQDYQSALEASMKPFISSKQILTM [MECR]
HeLa Kyoto [1]
  solubility change mitosis (log2): -0.0123
HeLa Kyoto [2]; cell cycle stage: G1/S
  melting temperature: 55 °C
HeLa Kyoto [2]; cell cycle stage: mitosis
  melting temperature: 54.1 °C
HeLa Kyoto [3]
  solubility in G1/S (log2): 0.282

## MTTKDYPSLWGFGTTKTFKIPIEHLDFKYIEKCSDVKHLEKILCVLRSGEEGYYPELTEFCEKHLQALAPESRALRKDKPAATAASFTAEEWEKIDGDIKSWVSEIKKEEDKMHFHETETFPAMKDNLPPVRGSNSCLHVGKEKYSKRPTKKKTPRDYAEWDKFDVEKECLKIDEDYKEKTVIDKSHLSKIETRIDTAGLTEKEKDFLATREKEKGNEAFNSGDYEEAVMYYTRSISALPTVVAYNNRAQAEIKLQNWNSAFQDCEKVLELEPGNVKALLRRATTYKHQNKLREATEDLSKVLDVEPDNDLAKKTLSEVERDLKNSEAASETQTKGKRMVIQEIENSEDEEGKSGRKHEDGGGDKKPAEPAGAARAAQPCVMGNIQKKLTGKAEGGKRPARGAPQRGQTPEAGADKRSPRRASAAAAAGGGATGHPGGGQGAENPAGLKSQGNELFRSGQFAEAAGKYSAAIALLEPAGSEIADDLSILYSNRAACYLKEGNCSGCIQDCNRALELHPFSMKPLLRRAMAYETLEQYGKAYVDYKTVLQIDCGLQLANDSVNRLSRILMELDGPNWREKLSPIPAVPASVPLQAWHPAKEMISKQAGDSSSHRQQGITDEKTFKALKEEGNQCVNDKNYKDALSKYSECLKINNKECAIYTNRALCYLKLCQFEEAKQDCDQALQLADGNVKAFYRRALAHKGLKNYQKSLIDLNKVILLDPSIIEAKMELEEVTRLLNLKDKTAPFNKEKERRKIEIQEVNEGKEEPGRPAGEVSMGCLASEKGGKSSRSPEDPEKLPIAKPNNAYEFGQIINALSTRKDKEACAHLLAITAPKDLPMFLSNKLEGDTFLLLIQSLKNNLIEKDPSLVYQHLLYLSKAERFKMMLTLISKGQKELIEQLFEDLSDTPNNHFTLEDIQALKRQYEL [SPAG1]
HeLa Kyoto [1]
  solubility change mitosis (log2): -0.0757
HeLa Kyoto [2]; cell cycle stage: G1/S
  melting temperature: 49.2 °C
HeLa Kyoto [2]; cell cycle stage: mitosis
  melting temperature: 48.5 °C
HeLa Kyoto [3]
  solubility in G1/S (log2): 0.51

## DLG5
HeLa Kyoto [1]
  solubility change mitosis (log2): 0.289
HeLa Kyoto [2]; cell cycle stage: mitosis
  melting temperature: 47.5 °C
HeLa Kyoto [3]
  solubility in G1/S (log2): -0.385

## MAEAGTGEPSPSVEGEHGTEYDTLPSDTVSLSDSDSDLSLPGGAEVEALSPMGLPGEEDSGPDEPPSPPSGLLPATVQPFHLRGMSSTFSQRSRDIFDCLEGAARRAPSSVAHTSMSDNGGFKRPLAPSGRSPVEGLGRAHRSPASPRVPPVPDYVAHPERWTKYSLEDVTEVSEQSNQATALAFLGSQSLAAPTDCVSSFNQDPSSCGEGRVIFTKPVRGVEARHERKRVLGKVGEPGRGGLGNPATDRGEGPVELAHLAGPGSPEAEEWGSHHGGLQEVEALSGSVHSGSVPGLPPVETVGFHGSRKRSRDHFRNKSSSPEDPGAEV [TSSC4]
HeLa Kyoto [1]
  solubility change mitosis (log2): 0.0166
HeLa Kyoto [2]; cell cycle stage: G1/S
  melting temperature: 51 °C
HeLa Kyoto [2]; cell cycle stage: mitosis
  melting temperature: 50.5 °C
HeLa Kyoto [3]
  solubility in G1/S (log2): 0.167

## MFPLTEENKHVAQLLLNTGTCPRCIFRFCGVDFHAPYKLPYKELLNELQKFLETEKDELILEVMNPPPKKIRLQELEDSIDNLSQNGEGRISVSHVGSTASKNSNLNVCNVCLGILQEFCEKDFIKKVCQKVEASGFEFTSLVFSVSFPPQLSVREHAAWLLVKQEMGKQSLSLGRDDIVQLKEAYKWITHPLFSEELGVPIDGKSLFEVSVVFAHPETVEDCHFLAAICPDCFKPAKNKQSVFTRMAVMKALNKIKEEDFLKQFPCPPNSPKAVCAVLEIECAHGAVFVAGRYNKYSRNLPQTPWIIDGERKLESSVEELISDHLLAVFKAESFNFSSSGREDVDVRTLGNGRPFAIELVNPHRVHFTSQEIKELQQKINNSSNKIQVRDLQLVTREAIGHMKEGEEEKTKTYSALIWTNKAIQKKDIEFLNDIKDLKIDQKTPLRVLHRRPLAVRARVIHFMETQYVDEHHFRLHLKTQAGTYIKEFVHGDFGRTKPNIGSLMNVTADILELDVESVDVDWPPALDD [PUS10]
HeLa Kyoto [1]
  solubility change mitosis (log2): -0.271
HeLa Kyoto [2]; cell cycle stage: G1/S
  melting temperature: 50.8 °C
HeLa Kyoto [2]; cell cycle stage: mitosis
  melting temperature: 51.8 °C
HeLa Kyoto [3]
  solubility in G1/S (log2): 0.0782

## MKDPSRSSTSPSIINEDVIINGHSHEDDNPFAEYMWMENEEEFNRQIEEELWEEEFIERCFQEMLEEEEEHEWFIPARDLPQTMDQIQDQFNDLVISDGSSLEDLVVKSNLNPNAKEFVPGVKYGNI [PAIP2]
HeLa Kyoto [1]
  solubility change mitosis (log2): -0.113
HeLa Kyoto [2]; cell cycle stage: G1/S
  melting temperature: 50.5 °C
HeLa Kyoto [3]
  solubility in G1/S (log2): 0.197
